According to publication PMC2913470:

Molecular target: T1, p82 (r82; Teb1-like RPA1-related telomerase holoenzyme subunit p82) (Tetrahymena thermophila, UniProt D2CVN6 1-701)
T1 sequence: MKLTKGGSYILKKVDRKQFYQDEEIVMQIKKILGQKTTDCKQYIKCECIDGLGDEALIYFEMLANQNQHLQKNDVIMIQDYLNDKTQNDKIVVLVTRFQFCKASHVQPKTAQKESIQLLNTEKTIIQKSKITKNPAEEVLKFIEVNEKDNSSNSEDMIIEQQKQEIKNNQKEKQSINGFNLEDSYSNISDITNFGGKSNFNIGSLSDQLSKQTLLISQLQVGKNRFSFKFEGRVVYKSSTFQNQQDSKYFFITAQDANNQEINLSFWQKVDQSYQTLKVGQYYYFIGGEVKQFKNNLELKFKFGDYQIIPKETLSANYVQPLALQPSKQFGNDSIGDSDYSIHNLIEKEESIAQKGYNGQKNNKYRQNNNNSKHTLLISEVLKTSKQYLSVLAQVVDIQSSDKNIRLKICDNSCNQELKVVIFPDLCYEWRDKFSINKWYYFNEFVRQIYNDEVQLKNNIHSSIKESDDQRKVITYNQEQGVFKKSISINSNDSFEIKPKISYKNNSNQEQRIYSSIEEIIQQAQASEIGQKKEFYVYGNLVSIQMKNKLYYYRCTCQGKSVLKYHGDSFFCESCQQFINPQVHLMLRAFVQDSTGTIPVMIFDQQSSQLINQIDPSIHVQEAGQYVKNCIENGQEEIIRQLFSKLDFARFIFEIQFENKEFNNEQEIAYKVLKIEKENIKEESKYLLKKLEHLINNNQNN
Assay: EMSA

B1: dsTelo3 (dsDNA)
DNA 1: CCCCAACCCCAACCCCAA
DNA 2: TTGGGGTTGGGGTTGGGG
Q: Does B1 bind?
A: Result: no binding
